System: Human keratinocytes (HaCaT)
Assay: Cell scratch assay
Type: cell-based
Details: 24 h after scratch, peptides 12.5 ppm, EGF 50 U/mL, compared with blank control, FIG. 8
Experimental: Human keratinocytes (HaCaT) were purchased from the Kunming Cell Bank of China Center for Type Culture Collection under the Chinese Academy of Sciences.
Polypeptide group: Peptide (13) and peptide (20). The test concentrations of all the above samples were 12.5 ppm.
Blank control group: PBS.
Positive control group: 50 U/mL of EGF.
A bottle of HaCaT cells in good exponential growth phase was taken. A 0.25% trypsin digestion solution was added so that digestion allowed the adherent cells to fall off, counting 1 to 4×10^5 cells/mL, which were prepared into a cell suspension.
The cells were inoculated into a 24-well plate at a density of 150,000 cells/well, with 2 mL cell suspension per well. After the cells attached to the wall and grew to 100% confluence, the culture medium was replaced with a medium containing 0.5%-1% fetal bovine serum to maintain the cells for 24 h for synchronization. A sterilized pipette tip was used to scratch a wound, the detached cells were washed off with PBS, and the samples to be tested were added. The incubation was continued in the 5% CO2 incubator at 37° C., and the migration of cells was observed under an optical microscope after 24 h.
The scratch migration experiment of cells can reflect the proliferation and repair ability of cells. […]

B1: EGF: positive control group: 50 U/mL of EGF in the cell scratch assay (protein, UniProt P01133 23-1207, looked up)
Pro-epidermal growth factor: PQHWSCPEGTLAGNGNSTCVGPAPFLIFSHGNSIFRIDTEGTNYEQLVVDAGVSVIMDFHYNEKRIYWVDLERQLLQRVFLNGSRQERVCNIEKNVSGMAINWINEEVIWSNQQEGIITVTDMKGNNSHILLSALKYPANVAVDPVERFIFWSSEVAGSLYRADLDGVGVKALLETSEKITAVSLDVLDKRLFWIQYNREGSNSLICSCDYDGGSVHISKHPTQHNLFAMSLFGDRIFYSTWKMKTIWIANKHTGKDMVRINLHSSFVPLGELKVVHPLAQPKAEDDTWEPEQKLCKLRKGNCSSTVCGQDLQSHLCMCAEGYALSRDRKYCEDVNECAFWNHGCTLGCKNTPGSYYCTCPVGFVLLPDGKRCHQLVSCPRNVSECSHDCVLTSEGPLCFCPEGSVLERDGKTCSGCSSPDNGGCSQLCVPLSPVSWECDCFPGYDLQLDEKSCAASGPQPFLLFANSQDIRHMHFDGTDYGTLLSQQMGMVYALDHDPVENKIYFAHTALKWIERANMDGSQRERLIEEGVDVPEGLAVDWIGRRFYWTDRGKSLIGRSDLNGKRSKIITKENISQPRGIAVHPMAKRLFWTDTGINPRIESSSLQGLGRLVIASSDLIWPSGITIDFLTDKLYWCDAKQSVIEMANLDGSKRRRLTQNDVGHPFAVAVFEDYVWFSDWAMPSVMRVNKRTGKDRVRLQGSMLKPSSLVVVHPLAKPGADPCLYQNGGCEHICKKRLGTAWCSCREGFMKASDGKTCLALDGHQLLAGGEVDLKNQVTPLDILSKTRVSEDNITESQHMLVAEIMVSDQDDCAPVGCSMYARCISEGEDATCQCLKGFAGDGKLCSDIDECEMGVPVCPPASSKCINTEGGYVCRCSEGYQGDGIHCLDIDECQLGEHSCGENASCTNTEGGYTCMCAGRLSEPGLICPDSTPPPHLREDDHHYSVRNSDSECPLSHDGYCLHDGVCMYIEALDKYACNCVVGYIGERCQYRDLKWWELRHAGHGQQQKVIVVAVCVVVLVMLLLLSLWGAHYYRTQKLLSKNPKNPYEESSRDVRSRRPADTEDGMSSCPQPWFVVIKEHQDLKNGGQPVAGEDGQAADGSMQPTSWRQEPQLCGMGTEQGCWIPVSSDKGSCPQVMERSFHMPSYGTQTLEGGVEKPHSLLSANPLWQQRALDPPHQMELTQ
modifications: Pro-epidermal growth factor
notes: positive control group: 50 U/mL of EGF in the cell scratch assay
  cell proliferation and migration (scratch spacing): obvious cell proliferation and migration
